Results on one molecule are retold here after CN113461812A (BEIJING LUFEI BIOTECHNOLOGY CO LTD, dated 2021).

What all share (test): SPR (Biacore), 1:1 binding fit
For orientation: In SPR one partner is held on a chip, and binding of the other changes the refractive index at the surface.

One assay addresses T1, RBD突变型(N501Y) (SARS-CoV-2, UniProt P0DTC2 319-541).
T1 construct: domain: RBD

For assay [1], the target named is T2, RBD突变型(K417T E484K N501Y) (SARS-CoV-2, UniProt P0DTC2 319-541).
T2 construct: domain: RBD

The target of assay [2] is T3, RBD突变型(K417N E484K N501Y) (SARS-CoV-2, UniProt P0DTC2 319-541).
T3 construct: domain: RBD

One may read the Kd as a measure of binding affinity in units of concentration. Read a high Kd as lower affinity. The term koff denotes the first-order rate constant of dissociation. Read a low koff as a long-lived complex. The kon is the second-order rate constant of association.

B1: 人源化新冠病毒中和性抗体nCoV-00D (antibody, V domains shown)
VH: QVQLQQSGAELVKPGASVKLSCKTSGYTFTRYYIYWVKQRPGQGLEWIGEINPNNGGTNFNEKFKSKATLTVDKSSNTAYMQLSSLTSEDSAVYYCTIFITTVIARDYWGQGTLVTVSA
VL: DIVLTQSPASLAVSLGQRATISCRASESVEYSGTTLMQWFQQKPGQPPKLLIYAASNVESGVPARFSGSGSGTDFSLNIHPVEEDDVAMYFCHQSREVPWTFGGGTKLEIKR
notes: also called nCoV-00D抗体
For the molecule B1, in the assay with RBD突变型(N501Y), the Kd was 0.246 pM, the koff was determined as 9.51e-08 s⁻¹ and the kon turned out to be 387000 M⁻¹ s⁻¹. In assay [1], this molecule displayed a Kd of 0.53 pM, a koff of 1.98e-08 s⁻¹ and a kon of 37400 M⁻¹ s⁻¹. In addition, in assay [2], the equilibrium dissociation constant (Kd) was 7.91 pM, the koff amounted to 2.35e-07 s⁻¹ and the kon came out at 29700 M⁻¹ s⁻¹.
